Measured values reported in PMC8813914, “The IGFBP3/TMEM219 pathway regulates beta cell homeostasis” (Nature Communications, 2022).

Target: T1, recombinant human IGFBP3 (insulin-like growth factor binding protein 3) (human, UniProt P17936 28-291)
T1 construct: as far as I recall the product is the mature protein without the signal peptide (about Gly28-Lys291); also called rh-IGFBP3; source: bought: R&D Systems, 8874-B3; expressed in S9-baculovirus, purity >95%
Experiment: SPR; Biacore 8 K
Details: both partners purified

T1 sequence (P17936 28-291): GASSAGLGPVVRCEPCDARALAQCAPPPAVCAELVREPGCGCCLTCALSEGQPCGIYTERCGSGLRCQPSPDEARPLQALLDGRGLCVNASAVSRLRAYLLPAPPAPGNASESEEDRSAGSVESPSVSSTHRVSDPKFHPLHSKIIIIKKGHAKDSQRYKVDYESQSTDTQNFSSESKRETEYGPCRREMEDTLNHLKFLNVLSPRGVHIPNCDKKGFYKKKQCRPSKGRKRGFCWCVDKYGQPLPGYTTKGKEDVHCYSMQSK

B1: ecto-TMEM219 (recombinant protein based on the TMEM219 extracellular domain) (domain or fragment)
chain: THRTGLRSPDIPQDWVSFLRSFGQLTLCPRNGTVTGKWRGSHVVGLLTTLNFGDGPDRNKTRTFQATVLGSQMGLKGSSAGQLVLITARVTTERTAGTCLYFSAVPGILPSSQPPISCSEEGAGNATLSPRMGEECVSVWSHEGLVLTKLLTSEELALCGSR
notes: TMEM219 extracellular domain, 162 amino acids as printed, molecular weight 18 kDa; Buffer 10 mM HEPES, 0.05% SDS, pH 7.5; also called newly generated recombinant protein based on TMEM219 extracellular portion; source: E. coli (vector pET30a), by Genscript, from inclusion bodies, one-step purification through Nickel column, purity >90%
- Kd: 1010 nM
